From publication PMC3368889 (Immunity, 2012)

Biological target: the molecule itself
Experiment: SEC

B1: C-terminal fragment of human NLRX1 (residues 629-975) (domain or fragment, UniProt Q86UT6 629-975, looked up)
chain: GLLSAHNRAVLAQLGCPIKNLDALENAQAIKKKLGKLGRQVLPPSELLDHLFFHYEFQNQRFSAEVLSSLRQLNLAGVRMTPVKCTVVAAVLGSGRHALDEVNLASCQLDPAGLRTLLPVFLRARKLGLQLNSLGPEACKDLRDLLLHDQCQITTLRLSNNPLTAAGVAVLMEGLAGNTSVTHLSLLHTGLGDEGLELLAAQLDRNRQLQELNVAYNGAGDTAALALARAAREHPSLELLHLYFNELSSEGRQVLRDLGGAAEGGARVVVSLTEGTAVSEYWSVILSEVQRNLNSWDRARVQRHLELLLRDLEDSRGATLNPWRKAQLLRVEGEVRALLEQLGSSGS
stoichiometry N: 2
